Assay results published in patent US20100056445A1, “ADIPONECTIN FOR THE TREATMENT AND DIAGNOSIS OF ALBUMINURIA” (THOMAS JEFFERSON UNIVERSITY, priority 2006, published 2010).
Entries after “also recorded” stand apart in the source; their conditions may differ.

Assays:
AMPK = experiment: Glomerular AMPK activity (p-AMPKα immunostain) in adiponectin KO mouse kidney; type: in vivo; details: adiponectin KO mice, adiponectin (gAd) treatment
Method: Immunohistochemistry: Immunocytochemistry was performed as described previously (30). Differentiated podocytes seeded on coverslips were serum-Starved overnight and globular adiponectin was added. After 24 hours of adiponectin introduction, cells were fixed in 3.7% paraformaldehyde. Incubation with primary antibody p-AMPKα at 1:50 dilution (Cell Signaling Technology) was performed in blocking solution at 4° C. overnight Cells were then incubated with secondary anti rabbit IgG conjugated to an immunofluorescent dye (Alexa 594, Invitrogen, Carisbad, Calif.) for 30 minutes at room temperature. Nuclear stain was performed with Hoechst 33342 (Invitrogen). Fluorescence pictures were obtained using confocal laser fluorescence microscope (LSM-510, Carl Zeiss, Jena, Germany). Immunostaining of paraffin-embedded mouse kidney was performed as described previously (26) with p-AMPKα (Thr172) rabbit monoclonal antibody (31). Quantitation of p-AMPKα positive cells was performed on 50 glomeruli from 4 mice in each group.
Immunohistochemistry: Immunocytochemistry was performed as described previously (30). […] Fluorescence pictures were obtained using confocal laser fluorescence microscope (LSM-510, Carl Zeiss, Jena, Germany). […] Quantitation of p-AMPKa positive cells was performed on 50 glomeruli from 4 mice in each group. […] Images were captured by confocal laser fluorescence microscope.

[1] = system: Adiponectin KO (Ad−/−) mice; experiment: Podocyte foot process effacement by electron microscopy in adiponectin KO mice; type: in vivo, mouse; details: gAd treatment, EM
Method: Adiponectin administration and animal studies: The mice were treated with 25 μg of recombinant human globular domain adiponectin (gAd; PepROTech, Rocky Hill, N.J.) subcutaneously twice daily for 10 consecutive days. The control animals were given PBS alone. 24-hour urines from each mouse were collected twice: one week before the injections and on the last day of the injections. The urine albumin and creatinine were measured with a mouse Albuwell ELISA kit and a Creatinine Companion kit (Exocell, Philadelphia, Pa.) (25,26). The mice were sacrificed five hours after the final gAd injection under anesthesia. Portions of kidney cortex were fixed in buffered formalin and embedded in paraffin. […]
Interventional animal studies: The mice were treated with 25 μg of recombinant human globular domain adiponectin gAd (PepROTech, Rocky Hill, N.J.), administered 25 μg/mouse twice a day for 10 consecutive days or full-length adiponectin (fAd) was administered using an AAV vector (AAV2/8 CMV fAd virus 4×1011 GC/mouse for 10 days). […] The urine albumin and creatinine were measured with a mouse Albuwell ELISA kit and a Creatinine Companion kit (Exocell, Philadelphia, Pa.) (26, 25). As an index of oxidant stress timed urine collections were also analyzed for hydrogen peroxide by Amplex red assay (Invitrogen/Molecular Probes, Carlsbad, Calif.) following the manufacturer's protocol. […]

B1: adiponectin: 30 kDa adipocyte-secreted protein; in the first series of tests the recombinant globular domain was used, later gAd or fAd (protein, UniProt Q15848 19-244, looked up)
Adiponectin: ETTTQGPGVLLPLPKGACTGWMAGIPGHPGHNGAPGRDGRDGTPGEKGEKGDPGLIGPKGDIGETGVPGAEGPRGFPGIQGRKGEPGEGAYVYRSAFSVGLETYVTIPNMPIRFTKIFYNQQNHYDGSTGKFHCNIPGLYYFAYHITVYMKDVKVSLFKKDKAMLFTYDQYQENNVDQASGSVLLHLEVGDQVWLQVYGEGERNGLYADNDNDSTFTGFLLYHDTN
Question: Which results are given for B1?
Answer: AMPK activity in glomerular podocytes (p-AMPKα positive cells per glomerulus) (AMPK): improved; also recorded: increased; Podocyte foot process fusion / effacement [1]: improved podocyte foot process effacement; also recorded: restored podocyte foot processes
